# Laboratory results from US12662531B2, “CLDN18.2 antibody and use thereof” (FUTUREGEN BIOPHARMACEUTICAL (BEIJING) CO., LTD., priority 2019, dated 2026).
# How the values were obtained:
# [1] = test system: SNU601 cells expressing CLDN18.2; assay: Endocytosis of antibody after binding to SNU601 cells stably expressing CLDN18.2; format: cell-based; details: 10 μg/ml, 4 h
# Procedure: It has been reported that the binding of some antibodies to cell surface antigens can cause endocytosis of antigen and antibody complexes, thereby reducing the expression level of the cell surface antigens and accelerating antibody metabolism in vivo (Schrama D et al., 2006, Nat Rev Drug Discov). In this example, the ability of antibodies 18.2-A1, 18.2-A3, 18.2-A4 and 18.2-A6 to be endocytosed by cells was tested in SNU601 cells stably expressing CLDN18.2. […] Subsequently, they were washed at 4° C. and stained with PE-labeled anti-human IgG antibody. After fixation with 4% formalin, antibody binding on the cell surface was tested by flow cytometry.
# [2] = target: T1, CLDN18.2 (CLDN18.2-Flag 293t cells) (Homo sapiens, UniProt P56856); assay: Binding specificity, 293t cells expressing CLDN18.2-Flag, flow cytometry; details: 10 μg/ml antibody, 4° C. 1 hour
# T1 construct: expressed in transfected cells; host or cells: 293t cells, transient transfection
# Source text: (§1) Human Claudin18 proteins include two homologues, i.e., CLDN18.1 and CLDN18.2, which share exons other than exon 1, and the exon 1 sequences of CLDN18.1 and CLDN18.2 are highly similar with only 8 different amino acids in the first extracellular region. The exon 1 of CLDN18.1 and the exon 1 of CLDN18.2 are specifically expressed in different tissues driven by different promoters. Among them, CLDN18.1 is specifically expressed in lung epithelial cells, while CLDN18.2 is specifically expressed in gastric epithelial cells. To identify the specificity of the screened CLDN18.2 antibodies, binding of the antibodies to CLDN18.1 and CLDN18.2 was tested.
# (§2) Specifically, well-grown 293t cells were taken to transiently express flag-tagged CLDN18.1 (CLDN18.1-Flag) or CLDN18.2 (CLDN18.2-Flag). 48 hours after transfection, the cells were digested with trypsin. After washed with flow cytometry buffer, the cells were mixed with 10 μg/ml of isotype control antibody or one of the above five CLDN18.2 antibodies in 200 μl of flow cytometry buffer, and were incubated at 4° C. for 1 hour. Subsequently, the cells were washed once with flow cytometry buffer, PE-labeled anti-human IgG antibody was added, and incubated at 4° C. for 30 min. The supernatant was removed by centrifugation, wash was performed twice with flow cytometry buffer, and the cells were fixed in a fix solution containing 1% paraformaldehyde and 0.5% triton-X100 and the cell membrane was permeabilized. Subsequently, the cells were incubated with APC-labeled anti-flag antibody for 30 min and tested by flow cytometry.
# control CT26 cell line = assay: Flow cytometry binding to control CT26 cell line; details: results not shown
# [3] = target: T2, CLDN18.1 (CLDN18.1-Flag 293t cells) (Homo sapiens, UniProt P56856); assay: Binding specificity, 293t cells expressing CLDN18.1-Flag, flow cytometry; details: 10 μg/ml antibody, 4° C. 1 hour
# T2 construct: expressed in transfected cells; host or cells: 293t cells, transient transfection
# Source text: as §1, §2
# [4] = target: T3, CLDN18.2 (CT26-CLDN18.2 cells) (Homo sapiens, UniProt P56856); assay: Flow cytometry binding of recombinant antibodies to CT26-CLDN18.2 cells; details: 4° C. 1 hour
# T3 construct: expressed in transfected cells; host or cells: CT26 cells (mouse), lentiviral transduction, puromycin selection
# Procedure: Binding activities of the recombinant monoclonal antibodies to CLDN18.2 were determined. Specifically, well-grown cell lines stably expressing CT26-CLDN18.2 were taken. The cells were washed with PBS, mixed with the fold-diluted antibody and incubated at 4° C. for 1 hour. The cells were washed once with flow cytometry buffer, PE-labeled anti-human IgG antibody was added, and incubated at 4° C. for 30 minutes. The supernatant was removed by centrifugation, and after the cells were washed with flow cytometry buffer, the fluorescence intensity on the surface of the cells was tested by flow cytometry. The relative binding activity of each antibody was calculated using the average fluorescence intensity.
# The binding activity of the defucosylated antibodies 18.2-A1F, 18.2-A3F and 18.2-A4F to CLDN18.2 as compared to the binding activity of 18.2-A1, 18.2-A3 and 18.2-A4 to CLDN18.2 was tested by flow cytometry, the method of which is as described in Example 5, and the experimental results are shown in FIG. 7.
# [5] = test system: human FcγRIIIa (V158) on FcγRIIIa-Jurkat cells; assay: Flow cytometry binding to FcγRIIIa-Jurkat cells
# Source text: We next further tested the binding activity of the CLDN18.2 antibodies and their defucosylated forms to FcγRIIIa expressed on the cell surface. Specifically, the human FcγRIIIa (V158, high FC binding subtype) gene was cloned into a mammalian cell expression vector carrying a puromycin screening marker and transfected into a Jurkat cell line. A cell line stably expressing FcγRIIIa (FcγRIIIa-Jurkat) was screened with puromycin. In addition, NK92MI is a human NK cell line that naturally expresses the FcγRIIIa receptor (F158, low FC binding subtype). The binding ability of the CLDN18.2 antibodies and their defucosylated forms to FcγRIIIa expressed on the surface of FcγRIIIa-jurkat cells and NK92MI cells was tested by flow cytometry. The specific flow cytometry assay is described with reference to Example 6.
# [6] = test system: untransfected Jurkat cells; assay: Flow cytometry binding to untransfected Jurkat cells; details: results not shown
binding to CLDN18.2-flag transfected positive 293t cells [2],binding to CLDN18.1-positive cells [3],binding to CT26 cell line expressing CLDN18.2 [4],Molecule,binding to SNU601 cells expressing CLDN18.2 under 4° C. incubation [1],antibody staining/binding on the cell surface under 37° C. incubation [1],binding to control CT26 cell line (control CT26 cell line),endocytosis by cells under 37° C. incubation [1],binding to FcγRIIIa-jurkat cells [5],binding to untransfected Jurkat cells [6]
–,–,–,"IMAB362: CLDN18.2 specific antibody (IMAB362, Ganymed) [reference compound]",bound well,decreased significantly,–,–,–,–
able to bind well,none of the six antibodies bound,able to bind well,"18.2-A2: recombinant monoclonal CLDN18.2 antibody, VH SEQ ID NO: 11, VL SEQ ID NO: 16 (antibody, V domains shown, 18.2-A2 VH; 18.2-A2 VL) VH: EVQLVQSGAEVKKPGASVKVSCKASGYTFTSFWVGWVRQAPGQGLEWIGNVSPSDSYTNYNQKFKDRATLTVDKSTSTAYMELSSLRSEDTAVYYCTRLSSGNSFDYWGQGTLVTVSS VL: DIVMTQSPDSLSVSLGERATINCKSSQSVLNSGNQKNYLTWYQQKPGQPPKLLIYWSSTKQSGVPDRFSGSGSGTDFTLTISSLQAEDVAVYYCQNAFSFPFTFGQGTKVEIK",–,–,did not bind,–,–,–
able to bind well,none of the six antibodies bound,able to bind well,"18.2-A3: recombinant monoclonal CLDN18.2 antibody, VH SEQ ID NO: 21, VL SEQ ID NO: 26 (antibody, V domains shown, 18.2-A3 VH; 18.2-A3 VL) VH: EVQLVQSGAEVKKPGASVKVSCKASGYTFTSYWLNWVRQAPGQGLEWIGSMYPSDSYTNYNQKFKDRATLTVDKSTSTAYMELSSLRSEDTAVYYCTRFSRGNSFDYWGQGTLVTVSS VL: DIVMTQSPDSLTVALGERATINCKSSQSLLESGNQKNYLTWYQQKPGQPPKLLIYWSWAKNSGVPDRFSGSGSGTDFTLTISSLQAEDVAVYYCQNAYAFPFTFGQGTKVEIK",bound well,still bound well,did not bind,did not undergo significant endocytosis,–,–
able to bind well,none of the six antibodies bound,able to bind well,"18.2-A6: recombinant monoclonal CLDN18.2 antibody, VH SEQ ID NO: 55, VL SEQ ID NO: 60 (antibody, V domains shown, 18.2-A6 VH; 18.2-A6 VL) VH: EVQLVQSGAEVKKPGASVKVSCKASGYTFTSYWLGWVRQAPGQGLEWIGIIYPSDSYTNYNQKFKDRATLTVDKSTSTAYMELSSLRSEDTAVYYCTRFWRGNSFDYWGQGTLVTVSS VL: DIVMTQSPDSLTIGLGERATINCKSSQSLLNSGNQKNYLTWYQQKPGQPPKLLIYWAAGKESGVPDRFSGSGSGTDFTLTISSLQAEDVAVYYCQNGYSHPFTFGQGTKVEIK",bound well,still bound well,did not bind,did not undergo significant endocytosis,–,–
able to bind well,none of the six antibodies bound,able to bind well,"18.2-A5: recombinant monoclonal CLDN18.2 antibody, VH SEQ ID NO: 41, VL SEQ ID NO: 46 (antibody, V domains shown, 18.2-A5 VH; 18.2-A5 VL) VH: EVQLVQSGAEVKKPGASVKVSCKASGYTFTSSWVGWVRQAPGQGLEWIGNSYPSDSYTNYNQKFKDRATLTVDKSTSTAYMELSSLRSEDTAVYYCTRLGRGNSFDYWGQGTLVTVSS VL: DIVMTQSPDSLTVALGERATINCKSSQSLIHSGNQKNYLTWYQQKPGQPPKLLIYWGLSKNSGVPDRFSGSGSGTDFTLTISSLQAEDVAVYYCQNSIYYPFTFGQGTKVEIK",–,–,did not bind,–,–,–
able to bind well,none of the six antibodies bound,able to bind well,"18.2-A4: recombinant monoclonal CLDN18.2 antibody, VH SEQ ID NO: 31, VL SEQ ID NO: 36 (antibody, V domains shown, 18.2-A4 VH; 18.2-A4 VL) VH: EVQLVQSGAEVKKPGASVKVSCKASGYTFTSFWISWVRQAPGQGLEWIGNILPSDSYTNYNQKFKDRATLTVDKSTSTAYMELSSLRSEDTAVYYCTRYWRGNSFDYWGQGTLVTVSS VL: DIVMTQSPDSLALALGERATINCKSSQSIINSGNQKNYLTWYQQKPGQPPKLLIYWGGTRHSGVPDRFSGSGSGTDFTLTISSLQAEDVAVYYCQNGYYSPFTFGQGTKVEIK",bound well,still bound well,did not bind,did not undergo significant endocytosis,able to bind,not able to bind
